In the DeepSol protein solubility set:

experiment: soluble on expression in E. coli; label from the status in PepcDB or PDB records

Soluble on expression in E. coli, not soluble:
MGSDKIHHHHHHMLISANFDGGNIEVINQDDINNVQLAIRPDEGGEFFQWFNFRLQGEVGQRYTLNIINAGQASYTKGWEDYQAAATYDRQQWFRLPTQYQDGKLTIEVELDCEMIQIAYFAPYSYERHQDLLSAVQVHPLVSLEHLGKTLDDRDMTLVKVGDEDEEKAKIWITARQHPGETMAEWLVEGLLNNLLDGDCPTAKALLDKANFYIVPNMNPDGGVRGHLRTNAKGVNLNREWQSPSLEKSPEVYHVVNRMKETGVDLYYDVHGDEGLPYVFLAGCEGVPGYNQKMADLQGDFVKALLMASADFQDEFGYDKDEPGQANLTVASNWVAQTFGCLSNTLEMPFKDNANMPDPMSGWSPERCIYLGEASLLAMLAVVDKLR
MGSDKIHHHHHHMLKRIATSLLDIAYDEQGNADGWPVVLLHGFPYDIHAYDAVTPRLTSQGARVITPYLRGYGPTRFLAPTTLRSGQQAALGADLLALLDALQIGQAVLGGYDWGGRAACIVAALYPSRARGLVSVNGYNIQNIAAASQPADPEKEYRMWYQYYLHGERGRAGLTENRREFCRLLWSLWSPTWHFGDDTYARSAAAFDNPDFVDVVVHSYRHRFGLVDGDPQFDDIERRLSAMPPITVPAITLEGDADGVSPPGGRQANSQRFTGRHQNRVVPNAGHNLPQEAPGAFADAVLDINAWAARRSCACGD
MGSDKIHHHHHHMLKRILVIIGLAVLATACSNAPRTVSHQVISENDDIQLTGLINNLEKDNRTGIFHKVRTNRSSALMGDKALASVYNEWVGTRYRMGGTTKRGIDCSAFMQTTFSEVFGIELPRSTAEQRHLGRKINKSELKKGDLVFFRKNNHVGVYIGNNQFMHASTGQGVTISSLDEKYWARTYTQSRRIM
MGSDKIHHHHHHMLLHLSTWQEVEAYLQQSKGIIFPIGSTEQHGPTGLIGTDAICAEAIAAGVGDATGAIVGPTINVGMALHHTAFPGTISLRPSTLIQVVRDYVTCLAKAGFSKFYFINGHGGNIATLKAAFSETYAHLEDLQIANAQQVQCQVANWFMCGSVYKLAKELYGDQEGSHATPSEVALTQYVYPEAIKQAPLSPEVASGHRIYSAADFRVRYPDGRMGSNPGLATPEHGKQFYDLAVKELSNGYLEFVNAD
MGSDKIHHHHHHMLMKSSTEQIRRQNSALVLAALRVEQAMSHTQIAAVTGLASATVTAITSELEQAGVIERHEQQIAGARGRPRVALSRRRDFAYVMSVRISSDRLNYTLSDFRGKLMDRFEEPRPLDVSAAGFIEGLGRNLARLASRSKLEPEKVAVLSVSSKGIVDAGGARLLWTPVFGQQPLDLKAALGDFEKAMALLSNETLLVAHGLSRRMDAQDGTFRGLIALSLGHSIGLGIARPMPDGTVAVSAPNFGHMLNTADSKLCRCGARGCIEASAGFYGILRMAFEVRPDTIPAKFVPITEMDKIALSARQGNRMAQYAFRQAGLALGQGLSRVFSLHETLPVTITGPGTRYYDLLAQGLEEGLAQSLQVRLDGAPPISLVGDEADLVQEGHVDHALRAIDERLFGGG
MGSDKIHHHHHHMLNEMEKTVLQMIMAGSDISRVDISRALGISKPVVSKAVNRLIELGFVKEAGRKESSSKGGRKPVLLSFVPESRYVIGVDIGGTKIDAVLTDLVGNVLNKEHILLPSNLDKRKLLELIKKVIHPFLVYERILGIGIGIPGTVDEDHLVKRIPAFDVTDWDLKEELEKTFGYPVFVENNANLDAFAEAKIGAGRGFRCVLLISVGWGIGSGIVYDGKIFRGARGKAGEFGHIVTDWSKEKEIVLEKGFGHLEEWFSGFSMSKRFGKSPEWVFEKRHNEIKKNLEHFGVAVANAIVLFDPDVVIIKGGIGLHQFEKISAVVRSVVSKIVPEDILKDVEIRKGEIEEYGVAIGGALFVIENILGLKGGGKYEGCQASREVGSKAGV
MGSDKIHHHHHHMLNFYPGPSKLHANIDLHLQQAITSGILSMNHRSMDFMQLYQQVQENFEQFYDLPKDYKVYFTSAATECWTILAQSFPNRSFLHLYNGSFGKKWMEVSKQLEVEHTSVVFDIHGELPVTEINPDTAAEIVCTTLVETSNGTFLSKDIQAAVRETFSDALIAVDATSALAGLSVTWEHADIWFASVQKCFGLPSGLGILILSPTAQHTVEFRSKDIHYNSLKRIVENGASFQTTHTPNILGIYLLAQRLKEIDVTEFFNRNERMNYLYNHFSSHPSLQPLIIEKSVQSATVLTLKGDEEYIKQVKKSLKAQDIIIGSGYGVWKENTIRLANFPAHTDEDFKKLLLVI
